# Patent publication US20200164083A1
# pEC50: −log10 of the molar value.
# Biological target: capture reagent (antibody) of the exenatide ELISA kit (Peninsula Laboratories Inc., # S-1311)
# Assay: ELISA (Peninsula Lab exenatide kit)
substance,measurement,value
exenatide (peptide),pEC50,9.70
